Laboratory results: patent publication US20230312741A1 (published 2023)

T1: soluble CD73 protein (ACRO, CD3-H52H7) (human, UniProt P21589 27-547)
T1 sequence (looked up): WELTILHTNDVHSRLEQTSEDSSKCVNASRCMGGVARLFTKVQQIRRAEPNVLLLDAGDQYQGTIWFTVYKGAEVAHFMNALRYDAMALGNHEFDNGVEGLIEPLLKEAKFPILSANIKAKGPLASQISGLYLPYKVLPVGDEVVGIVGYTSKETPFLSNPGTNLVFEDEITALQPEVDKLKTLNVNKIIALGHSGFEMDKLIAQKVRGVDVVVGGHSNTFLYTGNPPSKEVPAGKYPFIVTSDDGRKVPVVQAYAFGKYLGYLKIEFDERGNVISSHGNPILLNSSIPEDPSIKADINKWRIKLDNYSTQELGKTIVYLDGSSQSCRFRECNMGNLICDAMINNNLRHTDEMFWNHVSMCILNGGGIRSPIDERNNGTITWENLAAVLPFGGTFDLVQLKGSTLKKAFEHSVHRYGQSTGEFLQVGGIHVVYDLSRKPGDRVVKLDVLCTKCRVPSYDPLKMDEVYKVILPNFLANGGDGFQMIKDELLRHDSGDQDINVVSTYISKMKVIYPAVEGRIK

T2: human CD73 expressed on the cell surface (human, UniProt P21589 27-549)
T2 sequence: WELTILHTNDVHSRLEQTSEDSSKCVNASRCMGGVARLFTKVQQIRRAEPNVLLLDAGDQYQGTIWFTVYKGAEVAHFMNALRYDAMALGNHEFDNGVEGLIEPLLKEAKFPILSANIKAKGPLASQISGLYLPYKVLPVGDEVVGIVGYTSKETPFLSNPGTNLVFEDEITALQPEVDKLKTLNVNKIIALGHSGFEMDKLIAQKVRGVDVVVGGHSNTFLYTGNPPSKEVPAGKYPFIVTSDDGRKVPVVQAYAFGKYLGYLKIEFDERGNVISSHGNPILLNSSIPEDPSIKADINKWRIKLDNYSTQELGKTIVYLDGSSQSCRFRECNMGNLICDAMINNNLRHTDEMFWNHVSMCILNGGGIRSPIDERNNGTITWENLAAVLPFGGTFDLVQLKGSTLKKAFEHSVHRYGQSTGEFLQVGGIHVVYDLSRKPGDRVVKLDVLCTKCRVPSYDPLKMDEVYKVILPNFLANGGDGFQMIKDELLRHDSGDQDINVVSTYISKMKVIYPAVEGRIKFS

T3: CD73 mutant Y161A/K162A/V170A (human, UniProt P21589 27-549)
T3 construct: As m43; also called mutant 3
T3 chain: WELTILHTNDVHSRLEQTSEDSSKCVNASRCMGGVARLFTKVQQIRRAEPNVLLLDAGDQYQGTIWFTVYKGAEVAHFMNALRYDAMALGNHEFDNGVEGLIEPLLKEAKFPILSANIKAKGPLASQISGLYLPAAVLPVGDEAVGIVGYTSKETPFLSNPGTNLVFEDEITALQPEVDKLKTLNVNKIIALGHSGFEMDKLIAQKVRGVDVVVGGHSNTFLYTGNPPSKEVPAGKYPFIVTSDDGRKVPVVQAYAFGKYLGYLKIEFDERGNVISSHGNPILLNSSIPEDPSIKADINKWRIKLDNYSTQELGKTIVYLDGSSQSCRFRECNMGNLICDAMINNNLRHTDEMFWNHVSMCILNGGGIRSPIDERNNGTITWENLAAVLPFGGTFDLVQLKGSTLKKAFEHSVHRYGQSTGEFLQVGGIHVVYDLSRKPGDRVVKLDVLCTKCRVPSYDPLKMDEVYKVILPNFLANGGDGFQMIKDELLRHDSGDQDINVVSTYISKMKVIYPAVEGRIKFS

T4: CD73 mutant K136A/Y161A/K162A/V170A (human, UniProt P21589 27-549)
T4 construct: As m43; also called mutant 13
T4 chain: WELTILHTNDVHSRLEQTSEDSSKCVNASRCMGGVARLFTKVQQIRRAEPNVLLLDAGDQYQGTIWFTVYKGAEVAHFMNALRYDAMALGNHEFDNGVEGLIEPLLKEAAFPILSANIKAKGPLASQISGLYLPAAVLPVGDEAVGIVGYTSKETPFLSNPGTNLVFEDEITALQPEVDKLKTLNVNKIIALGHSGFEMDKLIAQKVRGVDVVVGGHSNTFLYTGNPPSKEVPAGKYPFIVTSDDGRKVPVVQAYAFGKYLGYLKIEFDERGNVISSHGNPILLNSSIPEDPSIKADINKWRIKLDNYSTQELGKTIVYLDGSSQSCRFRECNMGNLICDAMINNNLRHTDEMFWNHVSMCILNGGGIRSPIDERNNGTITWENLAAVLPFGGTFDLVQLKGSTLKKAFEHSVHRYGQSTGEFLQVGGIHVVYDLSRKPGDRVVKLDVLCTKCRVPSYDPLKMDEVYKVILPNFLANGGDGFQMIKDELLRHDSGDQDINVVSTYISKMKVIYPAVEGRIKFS

T5: CD73 mutant L159A/Y161A/K162A/V170A (human, UniProt P21589 27-549)
T5 construct: As m43; also called mutant 16
T5 chain: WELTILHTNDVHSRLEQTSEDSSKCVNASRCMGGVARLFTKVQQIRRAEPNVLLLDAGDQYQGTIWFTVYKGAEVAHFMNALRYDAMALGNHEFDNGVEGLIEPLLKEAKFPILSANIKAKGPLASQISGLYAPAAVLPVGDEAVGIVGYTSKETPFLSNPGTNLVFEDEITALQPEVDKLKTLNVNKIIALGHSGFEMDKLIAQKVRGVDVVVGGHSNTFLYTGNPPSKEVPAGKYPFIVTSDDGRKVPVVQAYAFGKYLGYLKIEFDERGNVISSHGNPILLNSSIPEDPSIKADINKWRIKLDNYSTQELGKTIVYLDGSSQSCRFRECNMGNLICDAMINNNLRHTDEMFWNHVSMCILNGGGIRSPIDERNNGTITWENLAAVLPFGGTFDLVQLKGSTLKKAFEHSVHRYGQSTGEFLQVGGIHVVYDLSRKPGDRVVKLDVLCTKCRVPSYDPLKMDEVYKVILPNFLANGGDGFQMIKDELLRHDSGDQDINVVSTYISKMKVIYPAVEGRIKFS


Assays:
[1] = biological target: T1, soluble CD73 protein (ACRO, CD3-H52H7); assay: cell-based or functional assay
[2] = biological target: T2, human CD73 expressed on the cell surface; assay: cell-based or functional assay
[3] = biological target: T3, CD73 mutant Y161A/K162A/V170A; assay: flow cytometry, GS-CHO cells with CD73 mutant
Protocol: (§1) After washing three more times with PBS, the cells were resuspended in 100 ul PBS. (4) The average fluorescence value was measured in PE channel by flow cytometer. The Log₁₀ of antibody concentration was used as the horizontal coordinate and the average fluorescence value of the PE channel was used as the vertical coordinate to plot a curve, and the EC50 and the peak of the curve were compared.

[4] = biological target: T4, CD73 mutant K136A/Y161A/K162A/V170A; assay: flow cytometry, GS-CHO cells with CD73 mutant
Protocol: as §1

[5] = biological target: T5, CD73 mutant L159A/Y161A/K162A/V170A; assay: flow cytometry, GS-CHO cells with CD73 mutant
Protocol: as §1

[6] = biological target: T2, human CD73 expressed on the cell surface; assay: cell-based or functional assay; remark: listed apart in the source

Row | Binder | IC50, enzymatic activity of soluble CD73 at 1 hour [1] | IC50, enzymatic activity of CD73 on NCI-H292 cells [2] | binding result [3] | binding result [4] | binding result [5] | IC50 for inhibiting the enzymatic activity of CD73 (Calu-6 cells) [6]
1 | ADI-37505 (antibody, human IgG4 S228P, kappa, F234A L235A, V domains shown) VH: QVQLVESGGGLVQPGGSLRLSCAASGFTFSNYAMTWVRQAPGKGLEWVSAISGRGTATYYADSVKGRFTISRDNSKNTLYLQMNSLRAEDTAVYYCARGGPYGSGSYWDTFDYWGQGTLVTVSS VL: EIVMTQSPATLSVSPGERATLSCRASQSVSSNLAWYQQKPGQAPRLLIYGASTRATGIPARFSGSGSGTEFTLTISSLQSEDFAVYYCQQYTNHYTFGGGTKVEIKR | 0.0718 nM | 1.47 nM | binds | binds | binds | 0.076 µg/mL
2 | ADI-37506 (antibody, human IgG4 S228P, kappa, F234A L235A, V domains shown) VH: EVQLLESGGGLVQPGGSLRLSCAASGFTFSNLAMSWVRQAPGKGLEWVSAISGRATSTYYADSVKGRFTISRDNSKNTLYLQMNSLRAEDTAVYYCARGGPYGSGSYWDTFDYWGQGTLVTVSS VL: EIVMTQSPATLSVSPGERATLSCRASQSVSSNLAWYQQKPGQAPRLLIYGASTRATGIPARFSGSGSGTEFTLTISSLQSEDFAVYYCQQYTNHYTFGGGTKVEIKR | 0.0897 nM | 1.27 nM | binds | binds | binds | 0.073 µg/mL
